# Literature values in publication PMC7850986.
# How the values were obtained:
# [1] = target: IFNAR1 (Homo sapiens) (UniProt P17181)
# [2] = target: IFNAR2 (Homo sapiens) (UniProt P48551)
# UniProt P48551, sequence (P48551 27-243): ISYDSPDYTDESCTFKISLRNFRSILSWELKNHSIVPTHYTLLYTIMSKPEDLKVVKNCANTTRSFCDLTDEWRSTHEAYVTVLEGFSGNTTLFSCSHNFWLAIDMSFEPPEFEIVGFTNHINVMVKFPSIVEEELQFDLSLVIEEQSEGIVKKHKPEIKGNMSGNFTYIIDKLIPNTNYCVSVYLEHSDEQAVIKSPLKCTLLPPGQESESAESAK
# UniProt P17181, sequence (P17181 28-436): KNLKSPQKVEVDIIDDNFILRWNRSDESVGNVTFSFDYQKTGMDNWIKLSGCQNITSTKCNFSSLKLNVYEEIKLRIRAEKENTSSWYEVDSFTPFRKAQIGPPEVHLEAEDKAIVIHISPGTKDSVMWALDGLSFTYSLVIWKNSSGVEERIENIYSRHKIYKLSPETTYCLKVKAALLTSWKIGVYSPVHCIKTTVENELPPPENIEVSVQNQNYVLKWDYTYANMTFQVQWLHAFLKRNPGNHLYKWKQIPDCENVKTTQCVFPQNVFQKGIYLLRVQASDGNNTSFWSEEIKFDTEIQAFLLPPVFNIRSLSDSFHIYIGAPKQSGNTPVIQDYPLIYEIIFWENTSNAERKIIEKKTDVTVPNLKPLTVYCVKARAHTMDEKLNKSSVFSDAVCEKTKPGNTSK
substance,measurement,setting,value
IFNβ (from UniProt P01574),Kd,[1],0.1 µM
same,Kd,[2],0.0001 µM
